In patent US20230408517A1 (BIO TECHNE, published 2023):
Where a chain is given by its changes, count along the chain named.

B1: 1035224 (antibody, V domains shown)
VH: EVQLQQSGAEFVRPGALVKLSCKASGFNIKDDYMHWVKQRPEQGLEWIGWIDPENGNSIYDPKFQGKASITADTSSNTAYLQLSSLTSEDTAVYYCARGEYFGSGSFAYWGQGTLVTVSA
VL: QIVLTQSPAIMSASPGEKVTISCSASSSVSYMYWYQQKPGSSPKPWIYRTSNLASGVPARFSGSGSGTSYSLTISSMEAEDAATYYCQQYHSYPYMYTFGGGTKLEIK
B2: 1035240 (antibody, V domains shown)
VH: QVQLQQSGAELARPGASVKMSCKASGYTFTTYTMHWVKQRPGQGLEWIGYINPSSGYTNYNQKFKDKATLTADTSSSTAYMQLSSLTSEDSAVYYCARRNPLYAMDYWGQGTSVTVSS
VL: DIKMTQSPSSMYASLGERVTITCKASQDINSYLNWFQQKPGKSPKTLIYRANRLVDGVPSRFSGSGSGQDYSLTISSLEYEDMGIYYCLQYDEFPYTFGGGTKLEIK
B3: 1035414 (antibody, V domains shown)
VH: QVQLKQSGAELVRPGASVKLSCKTSGYIFTSYWIHWVKQRSGQGLEWIARIYPGTGNTYYNEKFKGKATLTADKSSTTAYMQLSSLKSEDSAVYFCARGEDNLYYYAMDYWGQGTSVTVSS
VL: NIVLTQSPASLAVSLGQRATISCRASESVDSYGTSFMHWYQQKPGQPPKLLIYLASNLESGVPASFSGSGSRTDFTLTIDPVEADDAATYYCQQNNEDPWTFGGGTKLEIK
B4: 1035419 (antibody, V domains shown)
VH: B3 VH with V37I, N57S, Y60N, T77S, Y105F
VL: B3 VL with T34A, Y40C, S65R, N96Y
B5: 1035423 (antibody, V domains shown)
VH: EVKLEESGGGLVQPGGSMKLSCTASGFTFSDAWMDWVRQSPEKGLEWVAEIRNKANNHATYYAESVKGRFTISRDDSKSSVYLQMNSLRAEDTGIYYCILFITYAMDYWGQGTSVTVSS
VL: DIVLTQSQKFMSTSVGDRVSITCKASQNVRTAVAWYQQKPGQSPKALIYLASNRHTGVPDRFTGSGSGTDFTLTISNVQSEDLADYFCLQHWNYPLTFGSGTKLELK
B6: 1035433 (antibody, V domains shown)
VH: QVQLQQSGPQLVRPGASVKISCKASGYSFTIYWMHWVQQRPGQGLEWIGMIDPSDSETRLNQKFKDKATLTVDKSSSTAYMQLSSPTSEDSAVYYCARRGDYNFDYWGQGTTLTVSS
VL: DIVMTQAAPSVPATPGESVSISCRSSKSLLHSNGNTYLYWFLQRPGQSPQLLIFRMSNLASGVPDRFSGSGSGTAFTLRISRVEAEDVGVYYCMQHLEYPYTFGGGTKLEIK
B7: 1035752 (antibody, V domains shown)
VH: QVQLQQPGAELVRPGASVKMSCKASGYTFTSHSIHWVKQTPGQGLEWIGAVYPGNGDTSYYQKFKGKATLTADKSSSTAYMHLSSLTSEDSAVYYCARDGYSDYYAMDCWGQGTSVTVSS
VL: DIVMTQSQKFMSTSVGDRVSVTCKASQNVGTNVAWYQQKPGQSPKALIYSASYRYSGVPDRFTGSGSGTDFTLTINNVQSEDLAEYFCQQYNRYPWTFGGGTKLEIK
B8: 1035716 (antibody, V domains shown)
VH: EVLLQQSGPELVKPGASVKIPCKASGYTFTDYNMDWVKQSHGKSLEWIGDINPNNGGTIYNQKFKGKATLTVDKSSSTAYMELRSLTSEDTAVYYCAREGYGNYFDYWGQGTTLTVSS
VL: DILLTQSPAILSVSPGERVSFSCRASQSIGTSIHWYQQRTNGSPRLLIKYASESISGIPSRFSGSGSGTDYTLSINSVESEDIADYYCQQSYSWPTTFGAGTKLELK

Target: T1, SARS-CoV spike RBD (R306-F527), C-terminal 6-His (SARS-CoV, UniProt P59594 306-527)
Assay: flow cytometry, blocking of binding to hACE-2 cells

Binder	percent blocking
B1	0%
B2	0%
B3	0.4%
B4	44.1%
B5	0%
B6	0%
B7	0%
B8	68.7%

Target: T2, recombinant monomeric SARS-CoV-1 S1 protein (SARS-CoV-1, UniProt P59594 14-667)
Assay: as above

Binder	percent blocking
B1	0%
B2	0%
B3	12%
B4	88.5%
B5	0%
B6	0%
B7	0%
B8	89.5%

Target: T1, SARS-CoV spike RBD (R306-F527), …
Assay: antigen-down ELISA, coated SARS-CoV-1 S1 RBD titrated, Ab 1 µg/mL

Binder	binding result
B5	no binding (tested: 400 ng coated (axis))

Target: T2, recombinant monomeric SARS-CoV-1 S1 …
Assay: antigen-down ELISA, coated SARS-CoV-1 S1 titrated, Ab 1 µg/mL

Binder	binding result
B1	no binding (tested: 400 ng coated (axis))

Target: T3, BSA (bovine, UniProt P02769)
T3 construct: also called bovine serum albumin
T3 sequence (P02769 25-607 limits assumed): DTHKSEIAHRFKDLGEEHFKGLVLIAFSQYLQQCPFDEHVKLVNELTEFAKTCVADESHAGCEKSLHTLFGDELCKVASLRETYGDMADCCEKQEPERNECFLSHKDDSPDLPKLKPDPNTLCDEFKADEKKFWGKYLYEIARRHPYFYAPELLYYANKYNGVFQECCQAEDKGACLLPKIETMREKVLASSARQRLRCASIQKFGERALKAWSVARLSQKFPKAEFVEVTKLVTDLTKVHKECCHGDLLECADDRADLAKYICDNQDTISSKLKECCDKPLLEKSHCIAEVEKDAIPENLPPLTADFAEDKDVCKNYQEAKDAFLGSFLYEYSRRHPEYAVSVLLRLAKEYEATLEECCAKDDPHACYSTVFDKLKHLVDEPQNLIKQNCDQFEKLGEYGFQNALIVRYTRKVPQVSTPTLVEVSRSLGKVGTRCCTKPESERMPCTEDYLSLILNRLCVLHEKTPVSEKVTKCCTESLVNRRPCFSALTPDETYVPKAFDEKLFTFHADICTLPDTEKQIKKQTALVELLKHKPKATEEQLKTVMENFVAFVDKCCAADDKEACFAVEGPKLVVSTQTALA
Assay: dipstick, adsorbed protein spots, Ab 10 µg/mL, GAM-AuNP

Binder	binding result
B2	no binding (tested: 10 µg/mL)

Target: T4, recombinant his-tagged homotrimeric SARS-CoV-2 spike protein (SARS-CoV-2, UniProt P0DTC2 16-1211)
Assay: flow cytometry, blocking of binding to hACE-2 cells

Binder	percent blocking
B1	96.6%
B2	96.1%
B3	51.4%
B4	89%
B5	91.6%
B6	82.5%
B7	91.8%
B8	96.5%

Target: T1, SARS-CoV spike RBD (R306-F527), …
Assay: as above
Remark: another data set of the same source

Binder	percent blocking
B1	0%
B2	0%
B3	0.4%
B4	44.1%
B5	0%
B6	0%
B7	0%
B8	68.7%

Target: T5, recombinant monomeric SARS-CoV-2 S1 protein, his-tagged (SARS-CoV-2, UniProt P0DTC2 16-681)
T5 construct: domain: S1
Assay: as above

Binder	percent blocking
B1	86.6%
B2	56.5%
B3	25.9%
B4	70.1%
B5	19.7%
B6	9.3%
B7	93.3%
B8	93.8%

Target: T2, recombinant monomeric SARS-CoV-1 S1 …
Assay: as above
Remark: another data set of the same source

Binder	percent blocking
B1	0%
B2	0%
B3	12%
B4	88.5%
B5	0%
B6	0%
B7	0%
B8	89.5%

Target: T3, BSA
Assay: dipstick, adsorbed protein spots, Ab 10 µg/mL (reference)

Binder	binding result
B4	no binding (tested: 10 µg/mL)

Target: T1, SARS-CoV spike RBD (R306-F527), …
Assay: lateral flow NC50, RBD-AuNP vs immobilised ACE2

Binder	IC50
B4	2.86 mg/L

Target: T5, recombinant monomeric SARS-CoV-2 S1 …
Assay: flow cytometry, blocking of binding to hACE-2 cells
Remark: another data set of the same source

Binder	percent blocking
B1	86.6%
B2	56.5%
B3	25.9%
B4	70.1%
B6	9.3%
B7	93.3%
B8	93.8%

Target: T1, SARS-CoV spike RBD (R306-F527), …
Assay: dipstick, adsorbed RBD spots, Ab 10 µg/mL, GAM-AuNP

Binder	binding result
B2	no binding (tested: 10 µg/mL)

Target: T2, recombinant monomeric SARS-CoV-1 S1 …
Assay: antigen-down ELISA, coated SARS-CoV-1 S1 titrated, Ab 1 µg/mL
Remark: another data set of the same source

Binder	binding result
B6	no binding (tested: 400 ng coated (axis))

Target: T2, recombinant monomeric SARS-CoV-1 S1 …
Assay: as above
Remark: another data set of the same source

Binder	binding result
B2	no binding (tested: 400 ng coated (axis))

Target: T1, SARS-CoV spike RBD (R306-F527), …
Assay: dipstick, adsorbed RBD spots, Ab 10 µg/mL, GAM-AuNP
Remark: another data set of the same source

Binder	binding result
B1	no binding (tested: 10 µg/mL)

Target: T4, recombinant his-tagged homotrimeric …
Assay: flow cytometry, blocking of binding to hACE-2 cells
Remark: another data set of the same source

Binder	percent blocking
B1	96.6%
B2	96.1%
B3	51.4%
B4	89%
B5	91.6%
B6	82.5%
B7	91.8%
B8	96.5%

Target: T1, SARS-CoV spike RBD (R306-F527), …
Assay: antigen-down ELISA, coated SARS-CoV-1 S1 RBD titrated, Ab 1 µg/mL
Remark: another data set of the same source

Binder	binding result
B7	no binding (tested: 400 ng coated (axis))

Target: T2, recombinant monomeric SARS-CoV-1 S1 …
Assay: antigen-down ELISA, coated SARS-CoV-1 S1 titrated, Ab 1 µg/mL
Remark: another data set of the same source

Binder	binding result
B5	no binding (tested: 400 ng coated (axis))

Target: T2, recombinant monomeric SARS-CoV-1 S1 …
Assay: as above
Remark: another data set of the same source

Binder	binding result
B7	no binding (tested: 400 ng coated (axis))

Target: T1, SARS-CoV spike RBD (R306-F527), …
Assay: antigen-down ELISA, coated SARS-CoV-1 S1 RBD titrated, Ab 1 µg/mL
Remark: another data set of the same source

Binder	binding result
B6	no binding (tested: 400 ng coated (axis))
